B1: ATP-dependent protease ATPase subunit HslU (Escherichia coli (strain K12)), P0A6H5 (parent)
chain: MSEMTPREIVSELDKHIIGQDNAKRSVAIALRNRWRRMQLNEELRHEVTPKNILMIGPTGVGKTEIARRLAKLANAPFIKVEATKFTEVGYVGKEVDSIIRDLTDAAVKMVRVQAIEKNRYRAEELAEERILDVLIPPAKNNWGQTEQQQEPSAARQAFRKKLREGQLDDKEIEIDLAAAPMGVEIMAPPGMEEMTSQLQSMFQNLGGQKQKARKLKIKDAMKLLIEEEAAKLVNPEELKQDAIDAVEQHGIVFIDEIDKICKRGESSGPDVSREGVQRDLLPLVEGCTVSTKHGMVKTDHILFIASGAFQIAKPSDLIPELQGRLPIRVELQALTTSDFERILTEPNASITVQYKALMATEGVNIEFTDSGIKRIAEAAWQVNESTENIGARRLHTVLERLMEEISYDASDLSGQNITIDADYVSKHLDALVADEDLSRFIL
partner: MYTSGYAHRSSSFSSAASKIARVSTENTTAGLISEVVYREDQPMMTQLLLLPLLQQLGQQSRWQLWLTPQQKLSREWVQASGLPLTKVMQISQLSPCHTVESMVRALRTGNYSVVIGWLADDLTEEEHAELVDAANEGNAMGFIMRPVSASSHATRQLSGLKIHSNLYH

The variants in this assay derive from B1. The conditions noted are these: with sula_ecoli sulA.
As to I186N, the “effect of a mutation on the interaction” value is reported as “disrupting interaction strength”. Consider V89I, for which the “effect of a mutation on the interaction” value was “increasing interaction strength”.

Values taken from IntAct's records for PubMed 19395483.
